We go through 7 molecules from patent US12692305 (REVERB THERAPEUTICS, dated 2026).

B1: RV31 (bispecific antibody, human IgG1, kappa, lambda, L234A L235A)
heavy: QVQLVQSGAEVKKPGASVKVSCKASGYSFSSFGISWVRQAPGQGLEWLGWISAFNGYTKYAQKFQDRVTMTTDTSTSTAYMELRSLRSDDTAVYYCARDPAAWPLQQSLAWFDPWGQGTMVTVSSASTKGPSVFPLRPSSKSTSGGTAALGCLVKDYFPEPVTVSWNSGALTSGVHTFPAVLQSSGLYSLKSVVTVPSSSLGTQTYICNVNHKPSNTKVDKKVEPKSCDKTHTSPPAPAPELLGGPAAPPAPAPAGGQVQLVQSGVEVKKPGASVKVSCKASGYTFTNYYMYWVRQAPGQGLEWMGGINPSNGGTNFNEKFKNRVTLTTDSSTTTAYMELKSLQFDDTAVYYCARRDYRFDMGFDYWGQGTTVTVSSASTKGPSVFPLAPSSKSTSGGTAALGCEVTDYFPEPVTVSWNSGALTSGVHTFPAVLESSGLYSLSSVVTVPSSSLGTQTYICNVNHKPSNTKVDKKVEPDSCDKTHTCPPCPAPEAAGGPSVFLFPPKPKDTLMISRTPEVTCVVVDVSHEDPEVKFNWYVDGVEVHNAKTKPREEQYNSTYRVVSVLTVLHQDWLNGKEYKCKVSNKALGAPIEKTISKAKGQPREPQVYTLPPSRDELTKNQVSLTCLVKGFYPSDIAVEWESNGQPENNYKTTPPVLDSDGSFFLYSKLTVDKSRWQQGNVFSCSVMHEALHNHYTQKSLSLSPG
light 1: EIVLTQSPATLSLSPGERATLSCRASKGVSTSGYSYLHWYQQKPGQAPRLLIYLASYLESGVPARFSGSGSGTDFTLTISSLEPEDFAVYYCQHSRDLPLTFGGGTKVEIKRTVAAPSVFIFPPKDERLKSGTASVVCLLNNFYPREAKVQWKVDNALQSGNSQESVTEQDSKDSTYSLSSRLTLSKADYEKHKVYACEVTHQGLSSPVTKSFNRGEC
light 2: QSVLTQPPSASGTPGQRVTISCSGSTSNLKRNYVYWYQQLPGTAPKLLIYRDRRRPSGVPDRFSGSKSGTSASLAISGLRSEDEADYYCAWYDRELSEWVFGGGTKLTVLQPKAAPSVTLFPPSDEELQANTATLVCLISDFYPGAVTVAWKADSSPVKAGVETTTPSKQSNNKYAAESELSLTPEQWKSHRSYSCQVTHEGSTVEKTVAPTECS
notes: Dual Fab domain format (H1H1L1L1L2L2), IgG1 LALAPG; Purity 83 % main peak; O-glycosylation reported, likely in the inter-Fab linker
B2: RV32 (bispecific antibody, human IgG1, kappa, lambda, L234A L235A)
heavy: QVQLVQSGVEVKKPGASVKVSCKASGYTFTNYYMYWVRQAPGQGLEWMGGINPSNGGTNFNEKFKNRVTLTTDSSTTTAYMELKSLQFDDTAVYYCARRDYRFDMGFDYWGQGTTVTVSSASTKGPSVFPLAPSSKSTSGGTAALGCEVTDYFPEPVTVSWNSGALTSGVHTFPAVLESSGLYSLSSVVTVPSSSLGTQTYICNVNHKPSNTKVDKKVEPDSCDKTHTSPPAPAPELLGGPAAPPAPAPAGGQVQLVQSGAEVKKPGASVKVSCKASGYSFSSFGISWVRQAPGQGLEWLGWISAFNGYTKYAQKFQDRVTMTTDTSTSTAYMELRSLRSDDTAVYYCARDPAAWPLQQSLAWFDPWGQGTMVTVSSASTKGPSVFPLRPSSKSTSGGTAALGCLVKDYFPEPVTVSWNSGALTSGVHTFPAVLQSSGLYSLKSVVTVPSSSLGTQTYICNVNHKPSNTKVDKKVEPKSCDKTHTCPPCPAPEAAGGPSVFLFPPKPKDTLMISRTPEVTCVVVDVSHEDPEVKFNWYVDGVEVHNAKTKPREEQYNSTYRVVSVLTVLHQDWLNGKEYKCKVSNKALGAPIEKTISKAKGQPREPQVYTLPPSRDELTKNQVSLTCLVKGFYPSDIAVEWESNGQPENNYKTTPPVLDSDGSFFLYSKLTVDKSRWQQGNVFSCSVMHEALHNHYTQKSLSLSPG
light 1: B1 light 1
light 2: B1 light 2
notes: Dual Fab domain format (H1H1L1L1L2L2), IgG1 LALAPG; O-glycosylation reported, likely in the inter-Fab linker; also called bispecific antibody in dual Fab domain format (RV32); bispecific anti-PD-1 x anti-IL-15 antibody
B3: RV36 (bispecific antibody, human IgG1, kappa, L234A L235A)
heavy: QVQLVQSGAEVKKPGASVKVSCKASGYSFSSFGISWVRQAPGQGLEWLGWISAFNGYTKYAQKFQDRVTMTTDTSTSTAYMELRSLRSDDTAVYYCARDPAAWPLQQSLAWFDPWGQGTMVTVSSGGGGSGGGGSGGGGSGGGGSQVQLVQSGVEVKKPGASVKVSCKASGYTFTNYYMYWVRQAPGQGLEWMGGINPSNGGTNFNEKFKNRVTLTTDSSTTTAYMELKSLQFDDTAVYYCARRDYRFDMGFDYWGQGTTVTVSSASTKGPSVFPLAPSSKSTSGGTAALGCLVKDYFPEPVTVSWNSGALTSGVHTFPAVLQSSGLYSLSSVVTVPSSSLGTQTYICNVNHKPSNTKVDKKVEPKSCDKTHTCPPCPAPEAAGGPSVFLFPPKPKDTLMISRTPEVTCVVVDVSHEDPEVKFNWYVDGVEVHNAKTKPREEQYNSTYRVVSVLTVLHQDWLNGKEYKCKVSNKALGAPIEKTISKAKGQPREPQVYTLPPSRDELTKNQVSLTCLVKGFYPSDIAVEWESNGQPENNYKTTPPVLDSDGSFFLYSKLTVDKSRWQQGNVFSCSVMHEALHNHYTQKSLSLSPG
light: QSVLTQPPSASGTPGQRVTISCSGSTSNLKRNYVYWYQQLPGTAPKLLIYRDRRRPSGVPDRFSGSKSGTSASLAISGLRSEDEADYYCAWYDRELSEWVFGGGTKLTVLGGGGSGGGGSGGGGSGGGGSEIVLTQSPATLSLSPGERATLSCRASKGVSTSGYSYLHWYQQKPGQAPRLLIYLASYLESGVPARFSGSGSGTDFTLTISSLEPEDFAVYYCQHSRDLPLTFGGGTKVEIKRTVAAPSVFIFPPSDEQLKSGTASVVCLLNNFYPREAKVQWKVDNALQSGNSQESVTEQDSKDSTYSLSSTLTLSKADYEKHKVYACEVTHQGLSSPVTKSFNRGEC
notes: Dual variable domain format like RV29 but with a longer inter-Fv linker, IgG1 LALAPG
B4: RV29 (bispecific antibody, human IgG1, kappa, L234A L235A)
heavy: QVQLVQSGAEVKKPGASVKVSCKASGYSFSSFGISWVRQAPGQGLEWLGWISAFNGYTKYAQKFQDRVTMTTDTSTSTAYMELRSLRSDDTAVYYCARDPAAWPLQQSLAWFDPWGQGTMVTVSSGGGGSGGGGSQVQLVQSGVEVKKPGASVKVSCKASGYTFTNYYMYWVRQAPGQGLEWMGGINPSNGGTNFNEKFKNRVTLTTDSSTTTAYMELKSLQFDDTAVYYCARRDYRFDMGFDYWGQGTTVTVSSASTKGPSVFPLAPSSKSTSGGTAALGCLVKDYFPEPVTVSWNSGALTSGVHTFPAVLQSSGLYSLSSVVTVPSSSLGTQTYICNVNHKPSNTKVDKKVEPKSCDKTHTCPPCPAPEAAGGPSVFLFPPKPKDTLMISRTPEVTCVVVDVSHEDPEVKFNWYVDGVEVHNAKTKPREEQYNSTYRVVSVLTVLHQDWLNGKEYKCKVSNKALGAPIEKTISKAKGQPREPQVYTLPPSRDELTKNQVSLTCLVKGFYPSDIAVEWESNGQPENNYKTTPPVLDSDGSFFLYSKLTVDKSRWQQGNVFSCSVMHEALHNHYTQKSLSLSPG
light: QSVLTQPPSASGTPGQRVTISCSGSTSNLKRNYVYWYQQLPGTAPKLLIYRDRRRPSGVPDRFSGSKSGTSASLAISGLRSEDEADYYCAWYDRELSEWVFGGGTKLTVLGGGGSGGGGSEIVLTQSPATLSLSPGERATLSCRASKGVSTSGYSYLHWYQQKPGQAPRLLIYLASYLESGVPARFSGSGSGTDFTLTISSLEPEDFAVYYCQHSRDLPLTFGGGTKVEIKRTVAAPSVFIFPPSDEQLKSGTASVVCLLNNFYPREAKVQWKVDNALQSGNSQESVTEQDSKDSTYSLSSTLTLSKADYEKHKVYACEVTHQGLSSPVTKSFNRGEC
notes: Dual variable domain format, IgG1 LALAPG; also called bispecific antibody in DVD format (RV29); bispecific anti-PD-1 x anti-IL-15 antibody
B5: RV1 (antibody, human IgG1, lambda, V domains shown)
VH: QVQLVQSGAEVKKPGASVKVSCKASGYSFSSFGISWVRQAPGQGLEWLGWISAFNGYTKYAQKFQDRVTMTTDTSTSTAYMELRSLRSDDTAVYYCARDPAAWPLQQSLAWFDPWGQGTMVTVSS
VL: QSVLTQPPSASGTPGQRVTISCSGSTSNLKRNYVYWYQQLPGTAPKLLIYRDRRRPSGVPDRFSGSKSGTSASLAISGLRSEDEADYYCAWYDRELSEWVFGGGTKLTVLQ
notes: also called anti-IL-15 antibody (RV1); DISC0280-derived monospecific parent antibody
B6: RV26 (bispecific antibody, human IgG1, lambda, L234A L235A)
heavy 1: QVQLVQSGAEVKKPGASVKVSCKASGYSFSSFGISWVRQAPGQGLEWLGWISAFNGYTKYAQKFQDRVTMTTDTSTSTAYMELRSLRSDDTAVYYCARDPAAWPLQQSLAWFDPWGQGTMVTVSSASTKGPSVFPLAPSSKSTSGGTAALGCLVKDYFPEPVTVSWNSGALTSGVHTFPAVLQSSGLYSLSSVVTVPSSSLGTQTYICNVNHKPSNTKVDKKVEPKSCDKTHTCPPCPAPEAAGGPSVFLFPPKPKDTLMISRTPEVTCVVVDVSHEDPEVKFNWYVDGVEVHNAKTKPREEQYNSTYRVVSVLTVLHQDWLNGKEYKCKVSNKALGAPIEKTISKAKGQPREPQVYVYPPSRDELTKNQVSLTCLVKGFYPSDIAVEWESNGQPENNYKTTPPVLDSDGSFALVSKLTVDKSRWQQGNVFSCSVMHEALHNHYTQKSLSLSPGKGGGGSGGGGSGGGGSGGGGSEIVLTQSPATLSLSPGERATLSCRASKGVSTSGYSYLHWYQQKPGQAPRLLIYLASYLESGVPARFSGSGSGTDFTLTISSLEPEDFAVYYCQHSRDLPLTFGCGTKVEIKGGSGGGSGGGSGGGSGGGSGQVQLVQSGVEVKKPGASVKVSCKASGYTFTNYYMYWVRQAPGQCLEWMGGINPSNGGTNFNEKFKNRVTLTTDSSTTTAYMELKSLQFDDTAVYYCARRDYRFDMGFDYWGQGTTVTVSS
heavy 2: QVQLVQSGAEVKKPGASVKVSCKASGYSFSSFGISWVRQAPGQGLEWLGWISAFNGYTKYAQKFQDRVTMTTDTSTSTAYMELRSLRSDDTAVYYCARDPAAWPLQQSLAWFDPWGQGTMVTVSSASTKGPSVFPLAPSSKSTSGGTAALGCLVKDYFPEPVTVSWNSGALTSGVHTFPAVLQSSGLYSLSSVVTVPSSSLGTQTYICNVNHKPSNTKVDKKVEPKSCDKTHTCPPCPAPEAAGGPSVFLFPPKPKDTLMISRTPEVTCVVVDVSHEDPEVKFNWYVDGVEVHNAKTKPREEQYNSTYRVVSVLTVLHQDWLNGKEYKCKVSNKALGAPIEKTISKAKGQPREPQVYVLPPSRDELTKNQVSLLCLVKGFYPSDIAVEWESNGQPENNYLTWPPVLDSDGSFFLYSKLTVDKSRWQQGNVFSCSVMHEALHNHYTQKSLSLSPG
light: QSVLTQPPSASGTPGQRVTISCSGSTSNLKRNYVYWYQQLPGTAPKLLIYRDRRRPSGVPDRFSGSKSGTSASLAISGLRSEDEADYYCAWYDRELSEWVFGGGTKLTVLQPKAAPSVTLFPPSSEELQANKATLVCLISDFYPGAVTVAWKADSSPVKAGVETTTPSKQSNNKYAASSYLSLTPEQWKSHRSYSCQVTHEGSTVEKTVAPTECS
notes: Heterodimeric IgG1 LALAPG, two anti-IL-15 Fabs and one anti-PD1 scFv (H1H2L1L1); also called fusion of 1 scFv to a HC of a bispecific antibody in Fab-Fab format (RV26)
B7: RV15 (bispecific antibody, human IgG1, kappa, lambda, L234A L235A)
heavy 1: QVQLVQSGVEVKKPGASVKVSCKASGYTFTNYYMYWVRQAPGQGLEWMGGINPSNGGTNFNEKFKNRVTLTTDSSTTTAYMELKSLQFDDTAVYYCARRDYRFDMGFDYWGQGTTVTVSSASTKGPSVFPLAPSSKSTSGGTAALGCEVTDYFPEPVTVSWNSGALTSGVHTFPAVLESSGLYSLSSVVTVPSSSLGTQTYICNVNHKPSNTKVDKKVEPDSCDKTHTCPPCPAPEAAGGPSVFLFPPKPKDTLMISRTPEVTCVVVDVSHEDPEVKFNWYVDGVEVHNAKTKPREEQYNSTYRVVSVLTVLHQDWLNGKEYKCKVSNKALGAPIEKTISKAKGQPREPQVYVYPPSRDELTKNQVSLTCLVKGFYPSDIAVEWESNGQPENNYKTTPPVLDSDGSFALVSKLTVDKSRWQQGNVFSCSVMHEALHNHYTQKSLSLSPG
light 1: B1 light 1
heavy 2: B6 heavy 2 with A137R, S191K
light 2: B1 light 2
notes: Asymmetric IgG1 LALAPG heterodimer, one anti-PD1 Fab arm and one anti-IL-15 Fab arm (H1H2L1L2); also called bispecific antibody in a Fab-Fab format (RV15)

Where a chain is given by its changes, count along the chain named.

T2 sequence (Q15116 25-167 limits assumed): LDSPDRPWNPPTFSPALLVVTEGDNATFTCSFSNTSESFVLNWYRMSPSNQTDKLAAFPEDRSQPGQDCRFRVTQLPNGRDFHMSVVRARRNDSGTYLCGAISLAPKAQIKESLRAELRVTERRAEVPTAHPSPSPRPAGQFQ

The target in one assay is T1, human IL-15 (human, UniProt P40933 49-162).
T1 construct: also called Premium grade IL-15; GMP grade human IL-15
T1 sequence (P40933 49-162 limits assumed): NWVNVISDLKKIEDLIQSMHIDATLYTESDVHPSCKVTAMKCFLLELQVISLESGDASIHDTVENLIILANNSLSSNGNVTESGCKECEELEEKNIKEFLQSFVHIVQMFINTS
The assay is described as follows: SPR, variant captured on immobilised PD1, IL-15 analyte, single-cycle kinetics, 1:1 fit.
B1 had a Kd of 0.717 nM.

Regarding B2, the Kd amounted to 0.352 nM.

B3: the Kd amounted to 0.111 nM.

For the molecule B4, the Kd was determined as 0.339 nM.

Another assay has as its target T2, human PD-1 (human, UniProt Q15116 25-167, limits assumed).
T2 construct: Recombinant protein used in SPR as analyte or amine-coupled ligand; also called PD1 antigen
The assay is described as follows: SPR, variant as analyte over immobilised PD1 (avidity possible); PD1 capture surface, RV29 as analyte (third entry of the cell; avidity possible).
B4 gave a Kd of 2.35 nM.

The next assay has as its target T2, human PD-1. As to the kind of experiment: SPR, variant as analyte over immobilised PD1 (avidity possible).
Take B1: the Kd stood at 0.163 nM.

In the case of B2, the Kd was 0.0678 nM.

B3 gave a Kd of 0.243 nM.

The target in another assay is T2, human PD-1. As to the kind of experiment: SPR, variant captured on protein A, PD1 analyte. On the procedure:
EDC: 1-ethyl-3-(3-dimethylaminopropyl) carbodiimide hydrochloride; NHS: N-Hydroxysuccinimide; SPR: surface plasmon resonance; EDTA: ethylenediaminetetraacetic acid SPR Supplies Series S Sensor Chip CM5, Biacore amine coupling kit (NHS, EDC and 1 M ethanolamine), and 10 mM sodium acetate buffers were purchased from Cytiva Life Sciences (Marlborough, MA). […] PBS running buffer with 1% Tween20 (PBST) was purchased from Teknova Inc. (Hollister, Calif.). Goat polyclonal anti-human Fc antibody was purchased from Jackson Immuno Research Laboratories Inc. (West Grove, Pa.). EDTA was purchased from Bioshop (Burlington, ON). All SPR assays were carried out using a Biacore T200 Surface Plasmon Resonance instrument (Cytiva Life Sciences, (Marlborough, MA)) with PBST running buffer (with 0.5 M EDTA stock solution added to 3.4 mM final concentration) at a temperature of 25° C. […]
The first flow cell was left empty to use as a blank control. […] Buffer injections were performed for each analyte injection to be used for referencing.
As for B3, the Kd worked out at 97 nM.

Another assay has as its target T1, human IL-15. As to the kind of experiment: SPR, variant captured on anti-human Fc, IL-15 analyte, single-cycle kinetics, 1:1 fit. On the procedure:
EDC: 1-ethyl-3-(3-dimethylaminopropyl) carbodiimide hydrochloride; NHS: N-Hydroxysuccinimide; SPR: surface plasmon resonance; EDTA: ethylenediaminetetraacetic acid SPR Supplies Series S Sensor Chip CM5, Biacore amine coupling kit (NHS, EDC and 1 M ethanolamine), and 10 mM sodium acetate buffers were purchased from Cytiva Life Sciences (Marlborough, MA). […] PBS running buffer with 1% Tween20 (PBST) was purchased from Teknova Inc. (Hollister, Calif.). Goat polyclonal anti-human Fc antibody was purchased from Jackson Immuno Research Laboratories Inc. (West Grove, Pa.). EDTA was purchased from Bioshop (Burlington, ON). All SPR assays were carried out using a Biacore T200 Surface Plasmon Resonance instrument (Cytiva Life Sciences, (Marlborough, MA)) with PBST running buffer (with 0.5 M EDTA stock solution added to 3.4 mM final concentration) at a temperature of 25° C. The anti-human Fc capture surface was generated using a Series S Sensor Chip CM5 using the default parameters under the Immobilization Wizard in the Biacore T200 control software which was set to target 3000 resonance units (RUs).
The first flow cell was left empty to use as a blank control. […] The captured antibody surfaces were regenerated twice by 10 mM Glycine pH1.5 for 30 seconds at 30 μL/min. Buffer injections were performed for each analyte injection to be used for referencing.
B1 came in with a Kd of 0.18 nM.

Molecule B2 gave a Kd of 0.108 nM.

Molecule B3 returned a Kd of 0.116 nM.

B4: the Kd worked out at 0.114 nM.

As for B5, the Kd is 0.349 nM.

As to B6, the Kd came out at 0.396 nM.

Turning to B7, the Kd was determined as 0.108 nM.

Another assay concerns the target T2, human PD-1. The assay is described as follows: SPR, variant as analyte over immobilised PD1.
B6 returned a Kd of 2.19 nM.

B7 gave a Kd of 3.62 nM.
